Reference: patent US20060240570A1
Positions of bridges follow the written chain, without caps; N, C: chain ends. No end group written: not given here.

B1: phagemid CS1-31p, displayed peptide … (peptide)
peptide: CSFFYSLCYCWCS
modifications: disulfide (positions not given here); also: disulfide pairing among 4 Cys not given here, displayed on phagemid

target: unrelated control antibody; experiment: phage ELISA, 10^8 phagemid, wells coated with control mAb

Going from CSLFYLWDQDRCS (disulfide 1-12 (inferred); also: displayed on phagemid) [phagemid CS1-2p, displayed peptide …] to CSFRYQWDMFRCS (disulfide 1-12 (inferred); also: displayed on phagemid) [phagemid CS1-11p, displayed peptide …], the ELISA (absorbance units) (absorbance units) rises from 0.188 to 0.252.

First: CSFRYLWDQDRCS (disulfide 1-12 (inferred); also: displayed on phagemid) [phagemid CS1-6p, displayed peptide …]
Second: CSGLYPWDYFMCS (disulfide 1-12 (inferred); also: displayed on phagemid) [phagemid CS1-29p, displayed peptide …]
The ELISA (absorbance units) (absorbance units) of the first is higher: 0.173 for the first, 0.125 for the second.

First: B1
Second: CSGLYPWDMFRCS (disulfide 1-12 (inferred); also: displayed on phagemid) [phagemid CS1-9p, displayed peptide …]
The ELISA (absorbance units) (absorbance units) of the first is lower: 0.116 for the first, 0.209 for the second.

target: unrelated control antibody; experiment: phage ELISA, 10^9 phagemid, wells coated with control mAb

Going from CSLFYLWDQDRCS (disulfide 1-12 (inferred); also: displayed on phagemid) [phagemid CS1-2p, displayed peptide …] to CSFRYQWDMFRCS (disulfide 1-12 (inferred); also: displayed on phagemid) [phagemid CS1-11p, displayed peptide …], the ELISA (absorbance units) (absorbance units) rises from 0.199 to 0.258.

Going from CSFRYLWDQDRCS (disulfide 1-12 (inferred); also: displayed on phagemid) [phagemid CS1-6p, displayed peptide …] to CSGLYPWDYFMCS (disulfide 1-12 (inferred); also: displayed on phagemid) [phagemid CS1-29p, displayed peptide …], the ELISA (absorbance units) (absorbance units) falls from 0.172 to 0.147.

Going from B1 to CSGLYPWDMFRCS (disulfide 1-12 (inferred); also: displayed on phagemid) [phagemid CS1-9p, displayed peptide …], the ELISA (absorbance units) (absorbance units) rises from 0.118 to 0.204.

target: unrelated control antibody; experiment: phage ELISA, 10^10 phagemid, wells coated with control mAb

First: CSLFYLWDQDRCS (disulfide 1-12 (inferred); also: displayed on phagemid) [phagemid CS1-2p, displayed peptide …]
Second: CSFRYQWDMFRCS (disulfide 1-12 (inferred); also: displayed on phagemid) [phagemid CS1-11p, displayed peptide …]
The ELISA (absorbance units) (absorbance units) of the first is lower: 0.228 for the first, 0.242 for the second.

Compared with CSFRYLWDQDRCS (disulfide 1-12 (inferred); also: displayed on phagemid) [phagemid CS1-6p, displayed peptide …], CSGLYPWDYFMCS (disulfide 1-12 (inferred); also: displayed on phagemid) [phagemid CS1-29p, displayed peptide …] is lower in ELISA (absorbance units) (absorbance units): 0.203 for the first, 0.148 for the second.

First: B1
Second: CSGLYPWDMFRCS (disulfide 1-12 (inferred); also: displayed on phagemid) [phagemid CS1-9p, displayed peptide …]
The ELISA (absorbance units) (absorbance units) of the first is lower: 0.125 for the first, 0.213 for the second.
